Measurements from US8975086B2, “Method for treating or preventing bladder cancer using the DEPDC1 polypeptide” (OncoTherapy Science, Inc., priority 2008, dated 2015).

Experiments:
[1] = molecular target: T1, DEPDC1-ZNF224 complex (Homo sapiens, UniProt Q9NZL3, H562R/M118V); test: Immunoprecipitation of exogenous DEPDC1-HA and ZNF224-FLAG complex in peptide-treated COS7 cells; format: cell-based; conditions: six peptides added 6 hours after transfection, immunoprecipitation fifteen hours later
T1 construct: expressed in transfected cells; host or cells: COS7 cells, transiently co-transfected (pCAGGS-type vectors)
T1 sequence (Q9NZL3 whole entry M118V/H562R, one chain of several): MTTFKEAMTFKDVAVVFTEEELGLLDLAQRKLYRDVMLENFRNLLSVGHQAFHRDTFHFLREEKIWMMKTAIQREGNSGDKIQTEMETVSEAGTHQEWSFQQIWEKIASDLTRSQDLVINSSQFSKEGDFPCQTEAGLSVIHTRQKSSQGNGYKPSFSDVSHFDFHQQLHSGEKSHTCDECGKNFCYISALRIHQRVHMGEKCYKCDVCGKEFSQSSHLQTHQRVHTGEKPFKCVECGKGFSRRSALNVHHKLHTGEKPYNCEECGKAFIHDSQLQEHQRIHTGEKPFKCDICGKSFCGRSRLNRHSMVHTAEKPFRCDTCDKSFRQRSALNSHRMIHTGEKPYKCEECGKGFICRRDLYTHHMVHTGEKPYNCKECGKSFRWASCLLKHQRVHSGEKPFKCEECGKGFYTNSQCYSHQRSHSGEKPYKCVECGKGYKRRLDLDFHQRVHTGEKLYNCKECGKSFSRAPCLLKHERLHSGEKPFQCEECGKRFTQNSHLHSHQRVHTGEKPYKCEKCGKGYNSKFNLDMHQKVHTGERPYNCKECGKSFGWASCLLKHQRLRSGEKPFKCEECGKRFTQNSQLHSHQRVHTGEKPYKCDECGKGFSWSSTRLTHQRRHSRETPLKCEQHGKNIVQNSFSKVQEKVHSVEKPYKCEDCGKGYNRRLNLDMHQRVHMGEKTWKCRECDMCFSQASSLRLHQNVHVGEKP
Procedure: To confirm the interaction between DEPDC1 and ZNF224 in bladder cancer cells and identify the ZNF224-binding region in DEPDC1, the immunoprecipitation experiment was carried out as follows. First, it was confirmed interaction between endogenous DEPDC1 and exogenous ZNF224 by immunoprecipitation experiments using anti-DEPDC1 polyclonal antibody for immunoprecipitation and anti-FLAGM2 antibody (Amersham) for immunoblotting. To further determine the ZNF224-binding region in DEPDC1, it was cloned six partial constructs of DEPDC1 (DEPDC11-147, DEPDC1141-300, DEPDC1177-597, DEPDC1300-669, DEPDC1587-740 and DEPDC1654-811) into appropriate sites of COOH-terminal HA-tagged pCAGGS vector. The nucleotide sequence of each clones were determined with an ABI Prism 3700 DNA sequencer (Applied Biosystems, Foster City, Calif.), using each primer. Cell extracts from Cos7 cell line, transfected with each of plasmids expressing one of these six partial segments of DEPDC1, were precleared by incubation at 4 degrees C. for 1 hour with 100 micro 1 of protein G-agarose beads in final volumes of 2 mL of immunoprecipitation buffer (0.5% NP40, 50 mmol/L Tris-HCl, 150 mmol/L NaCl) in the presence of proteinase inhibitor. After centrifugation at 1,000 rpm for 5 minutes at 4 degrees C., the supernatants were incubated at 4 degrees C. with anti-HA rat for 1 hours. After the beads were collected from each sample by centrifugation at 5,000 rpm for 2 minutes and washed six times with 1 mL of immunoprecipitation buffer, the washed beads were re-suspended in 50 uL of Laemmli sample buffer and boiled for 3 minutes before the proteins were separated on 10% SDS-PAGE gels. Immunoblot was done using anti-HA rat antibody and anti-FLAGM2 monoclonal antibody, respectively (Sigma-Aldrich Co., St. Louis, Mo.).
To examine the effect of these polyarginine (11R)-linked peptides on inhibition of the DEPDC1-ZNF224 complex formation, they were co-transfected with DEPDC1 and ZNF224 constructs into COS7 cells. […] Immunoprecipitation were performed according to methods as described in “Identification of the ZNF224-binding regions in DEPDC1 protein” section.

[2] = test system: ZNF224 transcript; test: Semiquantitative RT-PCR of knockdown effect of ZNF224 siRNA expression vectors in UM-UC-3 cells; format: cell-based, human; conditions: compared with si-EGFP control
Procedure: It has been previously established a vector-based RNA interference (RNAi) system, psiU6BX3.0 that was designed to express small interfering RNAs (siRNA) in mammalian cells (Shimokawa T, et al., Cancer Res 2003 63:6116-20). Plasmids designed to express siRNA to ZNF224 were prepared by cloning of double-stranded oligonucleotides into the BbsI site of psiU6BX vectors. The target sequences of the synthetic oligonucleotides for RNAi were as follows:
si-ZNF224#2: 5′-CCGCAGGAACACATCAAGA-3′ (SEQ ID NO: 10) for the ZNF224-specific sequence. DNA sequences of all constructs were confirmed by DNA sequencing. […] To evaluate the knockdown effect of siRNAs by semi-quantitative RT-PCR with specific primers (see below), total RNAs were extracted from the transfected cells after 4-day incubation with neomycin (Geneticin, Invitrogen). […]
5′-[…]-3′ (SEQ ID NO: 13) and 5′-[…]-3′ (SEQ ID NO: 14) for GAPDH as a quantitative control. The transfected UM-UC-3 cells were cultured for 21 or 14 days in the presence of 1.0 mg/ml of neomycin, and the number of colonies were counted by Giemsa staining. Viability of UM-UC-3 cells was evaluated by 3-(4,5-dimethylthiazol-2-yl)-2,5-diphenyltetrazolium bromide (MTT) assay at 14 days after the treatment of neomycin with cell counting kit-8 according to manufacturer's recommendation (Wako, Osaka, Japan). […]

[3] = test system: DLG1; test: Quantitative RT-PCR of downstream gene DLG1 in UM-UC-3 cells; format: cell-based, human; conditions: UM-UC-3 cells transfected with siRNA, compared with siEGFP
Procedure: (§1) UM-UC-3 cells were transfected with siRNA against DEPDC1 (si-DEPDC1), ZNF224 (si-ZNF224-2) or EGFP (control siRNA). The target sequences of the synthetic oligo-duplex for siRNA against DEPDC1 (Sigma Aldrich) were as follows: si-DEPDC1,5′-CCAAAGUUCCGUAGUCUAA-3′(SEQ ID NO: 75), ZNF224 (si-ZNF224-2) or EGFP as described in “RNA interference assay” section.
(§2) Total RNAs were extracted from each sample at 12 hours and 24 hours after the transfection, labeled with Cy5 (for si-DEPDC1- and si-ZNF224-2-transfected cells) or Cy3 (for si-EGFP-transfected cells), and subjected to cohybridization onto cDNA microarrayslides containing 36468 cDNA or ESTs as described previously (Takata R, et al., Clin Cancer Res 2005 11:2625-36). After normalization of the data, it was excluded genes from further analysis when Cy5 and Cy3 dyes yielded signals intensities lower than the cut-off value. For other genes, the Cy5/Cy3 ratio was calculated using the raw data of each samples. […] Validation of candidate downstream genes of both DEPDC1 and ZNF224 was carried out with quantitative RT-PCR analysis using the SYBR green dye (Rhoche) and the same amplified RNAs from UM-UC-3 cells used for cDNA microarray experiments, with each gene-specific primer as follows;
(§3) All experiments were performed in duplicate. The calculated quantity of the target gene for each sample was then divided by the average calculated quantity of beta 2-microglobulin (beta 2-MG) corresponding to each sample to give a relative expression of the target gene for each sample

[4] = test system: A20 (TNFAIP3); test: Quantitative RT-PCR of downstream gene A20 in UM-UC-3 cells; format: cell-based, human; conditions: UM-UC-3 cells transfected with siRNA, compared with siEGFP
Procedure: as §1
as §2, with “After normalization of the data, it was excluded genes from further analysis when Cy5 and Cy3 dyes yielded signals intensities lower than the cut-off value.” left out
as §3

[5] = test system: UM-UC-3 cells; test: MTT and colony-formation assays of UM-UC-3 cells transfected with siRNA expression vectors; format: cell-based, human; conditions: UM-UC-3 cells transfected with siRNA expression vector, neomycin selection
Text: si-ZNF224#2: 5′-CCGCAGGAACACATCAAGA-3′ (SEQ ID NO: 10) for the ZNF224-specific sequence. DNA sequences of all constructs were confirmed by DNA sequencing. Eight-micrograms each of siRNA-expression vector were transfected into UM-UC-3 cells (1×10^6 cells per 10 cm-dish), respectively, using FuGENE6 transfection reagent (Roche) according to the supplier's recommendations. To evaluate the knockdown effect of siRNAs by semi-quantitative RT-PCR with specific primers (see below), total RNAs were extracted from the transfected cells after 4-day incubation with neomycin (Geneticin, Invitrogen). The specific primer sets for RT-PCR are as follows; 5′-[…]-3′ (SEQ ID NO: 11) and 5′-[…]-3′ (SEQ ID NO: 12) for ZNF224;
5′-[…]-3′ (SEQ ID NO: 13) and 5′-[…]-3′ (SEQ ID NO: 14) for GAPDH as a quantitative control. The transfected UM-UC-3 cells were cultured for 21 or 14 days in the presence of 1.0 mg/ml of neomycin, and the number of colonies were counted by Giemsa staining. Viability of UM-UC-3 cells was evaluated by 3-(4,5-dimethylthiazol-2-yl)-2,5-diphenyltetrazolium bromide (MTT) assay at 14 days after the treatment of neomycin with cell counting kit-8 according to manufacturer's recommendation (Wako, Osaka, Japan). Absorbance at 570 nm wavelength was measured with a Microplate Reader 550 (Bio-Rad, Hercules, Calif.). These experiments were performed in triplicate.

“RRRRRRRRRRR-GGG-LHDAMGTRSLMIHTFSRC (RRRRRRRRRRRGGGLHDAMGTRSLMIHTFSRC; An artificially synthesised dominant negative peptide) [11R-DEP636-653, 11R-linked DEPDC1 codons 636-653 peptide]” was tested. Which “complex formation between exogenously expressed DEPDC1-HA and ZNF224-Flag (immunoprecipitation)” value (“complex formation between exogenously” for short) [1] did it give?
The value was “no inhibition”.

Which “complex formation between exogenously” value [1] does the source give for “RRRRRRRRRRR-GGG-ISRMSQNVDMPKLHDAMG (RRRRRRRRRRRGGGISRMSQNVDMPKLHDAMG; An artificially synthesised dominant negative peptide) [11R-DEP624-641, 11R-linked DEPDC1 codons 624-641 peptide]” here?
Its value is “no inhibition”.

How did the “amount of ZNF224 transcript (knockdown effect)” value [2] turn out when 5′-CCGCAGGAACACATCAAGA-3′ [si-ZNF224-2] was run?
Its value is “significantly suppressed”.

What about the “DLG1 transcript (quantitative RT-PCR)” value [3] of the same substance?
The value was “time-dependent increase”.

What about the “A20 transcript (quantitative RT-PCR)” value [4] of the same substance?
The value was “time-dependent increase”.

And the “growth of UM-UC-3 cell (MTT and colony-formation assays)” value [5]?
Its value is “marked suppression growth”.

Which “complex formation between exogenously” value [1] does the source give for “RRRRRRRRRRR-GGG-PKRHGLHLSQENGEKIKHE (RRRRRRRRRRRGGGPKRHGLHLSQENGEKIKHE; An artificially synthesised dominant negative peptide) [11R-DEP148-166, 11R-linked DEPDC1 codons 148-166 peptide]” here?
The value was “no inhibition”.

With “RRRRRRRRRRR-GGG-NGEKIKHEIINEDQENAI (RRRRRRRRRRRGGGNGEKIKHEIINEDQENAI; An artificially synthesised dominant negative peptide) [11R-DEP159-176, 11R-linked DEPDC1 codons 159-176 peptide]” as the substance, how does the “complex formation between exogenously” value [1] read?
The value was “no inhibition”.
